Assay results: patent publication US20090075925A1, “Methods and Compositions Related to APOBEC-1 Expression” (priority 2006, published 2009)

Molecular target: rat APOBEC-1 (endogenous, rat liver nuclear extract and McArdle cells) (rat)
Experiment: cell-based or functional assay

rat ACF64 S154D (from UniProt Q923K9 1-586)
apoB mRNA editing in stable McArdle cell lines: 67%
